The target in assay [1] is GST-syntaxin 1A fusion protein, full-length (2-289) (rat). As to the kind of experiment: GST-syntaxin 1A pull-down (5 µM GST-syntaxin, 10 µM fusion protein), immunoblot. Background: Immunoblotting shows a protein as a band on a membrane.
Assay [2] shares this target. As to the kind of experiment: competition on GST-syntaxin beads against 125I-ω-CTx-GVIA-labeled N-type channels.
Assay [3] deals with GST alone (Schistosoma japonicum (Blood fluke)) [GST: P08515]. As to the kind of experiment: 125I-ω-CTx-GVIA-labeled channels on GST beads, direct counting.
For assay [4], the target named is GST fusion protein including full-length SNAP-25 (Mus musculus (Mouse)) (UniProt P60879). In words: titration on GST-SNAP-25 beads, immunoblot.
The target in assay [5] is GST-syntaxin 1A fusion protein, full-length (2-289) (rat). As to the kind of experiment: titration on GST-syntaxin beads, immunoblot.
The target is the same in assay [6]. In words: GST-syntaxin pull-down at equal concentrations, immunoblot.

We go through seven substances from US6090631.

For the substance His-LII-III (718-859), the pixel value (phosphorimaging of bound fusion protein, FIG. 14) in assay [1] stood at 45 pixel value.

In assay [2], His-LII-III (773-859) returned a percent reduction in the specific binding of labeled N-type channels to GST-syntaxin of 78%.

Regarding His-LII-III (832-963), in assay [1], the pixel value (phosphorimaging of bound fusion protein, FIG. 14) was 751 pixel value.

As for His-LII-III (1027-1145), the percent reduction in the specific binding of labeled N-type channels to GST-syntaxin in assay [2] is 10%.

As for “[125I]-ω-CTx-GVIA-labeled N-type calcium channels, partially purified from rat brain (from UniProt Q02294)”, the cpm of labeled channels bound in assay [3] was 549 cpm.

In the case of hBI 722-1036, the half-maximal saturation in assay [4] is 1 to 2 µM; in assay [5], 2 µM.

In assay [6], rbB 718-963 gave a fold higher affinity than rbB 718-859 of 40 fold. In assay [5], this substance showed a fold greater affinity than hBI 722-1036 of 10 fold and a half-maximal saturation of 0.2 µM. The pixel value (phosphorimaging of bound fusion protein, FIG. 14) in assay [1] amounted to 1650 pixel value.
